Experimental findings from patent US20210000969A1 (HUALAN GENETIC ENGINEERING, published 2021) are described below.

In this assay the target is T1, mouse PV-1 protein (mouse, UniProt Q91VC4 1-438, limits assumed).
T1 construct: The form tested is not described
T1 sequence: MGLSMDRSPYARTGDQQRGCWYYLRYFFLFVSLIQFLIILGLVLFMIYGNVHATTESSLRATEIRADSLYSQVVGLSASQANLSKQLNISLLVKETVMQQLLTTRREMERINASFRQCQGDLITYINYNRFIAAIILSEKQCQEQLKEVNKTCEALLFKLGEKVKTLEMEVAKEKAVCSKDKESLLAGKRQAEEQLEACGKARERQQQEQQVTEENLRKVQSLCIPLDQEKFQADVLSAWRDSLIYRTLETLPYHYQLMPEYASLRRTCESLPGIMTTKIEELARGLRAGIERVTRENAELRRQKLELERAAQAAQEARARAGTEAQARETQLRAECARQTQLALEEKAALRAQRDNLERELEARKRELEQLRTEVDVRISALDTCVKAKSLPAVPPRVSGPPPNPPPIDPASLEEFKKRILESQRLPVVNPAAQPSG
Kind of assay: not described.

B1: murine monoclonal antibody STW-139-15 (antibody, V domains shown)
VH: QVQLQQSGAELVKPGASVKLSCKASGYTFTDYYMYWVKQRPGQGLELIGEINPTNGDVNFNEMFKSKATLTVDTSSRTAYMQLSSLTSEDSAVYYCTSIHYWGQGTLVTVSA
VL: DIVMTQSPSSMYASLGERITITCKASQDIKTNLSWYQQKPWKSPKTLIYYATDLADGVPSRFSGSGSGQYFSLTISSLESDDTATYYCLQHDDRPFTFGSGTKLEIK
B1: the binding result was “no binding”.
